T1: human CD20 (human, UniProt P11836 1-297)
T1 sequence (looked up): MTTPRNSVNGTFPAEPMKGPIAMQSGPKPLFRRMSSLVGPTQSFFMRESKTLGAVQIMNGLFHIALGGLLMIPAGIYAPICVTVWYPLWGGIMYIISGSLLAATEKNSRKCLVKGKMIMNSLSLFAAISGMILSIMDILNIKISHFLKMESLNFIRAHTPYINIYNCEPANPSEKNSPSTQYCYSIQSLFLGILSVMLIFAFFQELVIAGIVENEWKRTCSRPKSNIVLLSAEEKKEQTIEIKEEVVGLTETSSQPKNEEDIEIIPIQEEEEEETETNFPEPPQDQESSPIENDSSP


How the values were obtained:
[1] = target: T1, human CD20; test: cell-based or functional assay
[2] = target: T1, human CD20; test: flow cytometry on Raji-CD47KO cells (CD20+CD47-)
[3] = target: T2, human CD47 (human, UniProt Q08722 19-323); test: FACS competition on Jurkat cells against 25 nM labelled SIRPα-Fc. Number printed in the IC50 table although the Rituximab curve shows no inhibition (see non_binding). The table prints no unit, nM is taken from the concentration axis
T2 construct: whole, on cells; Endogenous CD47 on tumor cell lines
Protocol: (§1) The mixture was cultured at RT for 30 minutes, and then incubated with Jurkat cells at RT for 1 hour. After washes, the cells was added with fluorescence labeled streptavidin (FITC-Strep) and then incubated at RT for 1 hour.

[4] = target: T2, human CD47; test: flow cytometry on Jurkat cells (CD20-CD47+)
[5] = target: T2, human CD47; test: FACS competition on Jurkat cells; competitor 25 nM biotin-SIRPα-Fc, detected with FITC-streptavidin
Protocol: as §1

[6] = target: T2, human CD47; test: cell-based or functional assay

Binder	ADCC EC50, Raji target cells, NK92MI-CD16a effector cells [1]	ADCC EC50, Raji-CD47KO target cells, NK92MI-CD16a effector cells [1]	EC50 [2]	IC50 [3]	CDC EC50, Raji target cells, rabbit complement [1]	EC50 [4]	EC50 [5]	phagocytosis of HL-60 cells by mouse macrophage cell line Ana-1, EC50 [6]
Rituximab (antibody, V domains shown, Comparator antibody; also called Rituxan) VH: QVQLQQPGAELVKPGASVKMSCKASGYTFTSYNMHWVKQTPGRGLEWIGAIYPGNGDTSYNQKFKGKATLTADKSSSTAYMQLSSLTSEDSAVYYCARSTYYGGDWYFNVWGAGTTVTVSA VL: QIVLSQSPAILSASPGEKVTMTCRASSSVSYIHWFQQKPGSSPKPWIYATSNLASGVPVRFSGSGSGTSYSLTISRVEAEDAATYYCQQWTSNPPTFGGGTKLEIK	3.82 ng/mL	1.13 ng/mL	0.06 nM	7.19 nM	–	–	–	–
CD20mAb-SD1 (bispecific antibody, human IgG1, kappa, Four chains, two heavy and two light, joined by disulfide bonds; Expressed in CHO cells; also called recombinant bi-functional fusion protein; CD20Ab-SD1) heavy: not shown light: QIVLSQSPAILSASPGEKVTMTCRASSSVSYIHWFQQKPGSSPKPWIYATSNLASGVPVRFSGSGSGTSYSLTISRVEAEDAATYYCQQWTSNPPTFGGGTKHELKRTVAAPSVFIFPPSDEQLKSGTASVVCLLNNFYPREAKVQWKVDNALQSGNSQESVTEQDSKDSTYSLSSTLTLSKADYEKHKVYACEVTHQGLSSPVTKSFNRGEC	0.14 ng/mL	0.14 ng/mL	0.08 nM	–	11 nM	2.72 nM	476 nM	–
SD1-CD20mAb (bispecific antibody, human IgG1, kappa, Four chains, two heavy and two light, joined by disulfide bonds; Expressed in CHO cells; also called recombinant bi-functional fusion protein) heavy: not shown light: QIVLSQSPAILSASPGEKVTMTCRASSSVSYIHWFQQKPGSSPKPWIYATSNLASGVPVRFSGSGSGTSYSLTISRVEAEDAATYYCQQWTSNPPTFGGGTKHELKRTVAAPSVFIFPPSDEQLKSGTASVVCLLNNFYPREAKVQWKVDNALQSGNSQESVTEQDSKDSTYSLSSTLTLSKADYEKHKVYACEVTHQGLSSPVTKSFNRGEC	0.15 ng/mL	0.1 ng/mL	0.4 nM	–	3.36 nM	0.09 nM	19.7 nM	300 ng/mL
